Experimental data published in patent US20160319032A1.

Experiments:
[1] = target: α4β1 integrin on J6.77 cells (UniProt P13612); assay: cell-based or functional assay
[2] = target: α5β1 integrin on K562 cells (UniProt P08648); assay: cell-based or functional assay
[3] = target: human αV on parental A375M cells (αVβ3 and αVβ5 integrins) (human) (UniProt P06756); assay: cell-based or functional assay
[4] = target: mouse αV on transfected HEK-293 cells (mouse) (UniProt P43406); assay: FACS, transfected HEK-293 (parental: 0)
[5] = target: mouse αVβ6 on cells (mouse) (UniProt P43406); assay: FACS, transfected HEK-293 (parental: 0)
[6] = target: cynomolgus αVβ6 on cells (cynomolgus); assay: FACS, transfected HEK-293 (parental: 0)
[7] = target: cynomolgus β6 on transfected HEK-293 cells (cynomolgus); assay: FACS, transfected HEK-293 (parental: 0)
[8] = target: cynomolgus αV on transfected HEK-293 cells (cynomolgus); assay: FACS, transfected HEK-293 (parental: 0)
[9] = target: mouse β6 on transfected HEK-293 cells (mouse) (UniProt Q9Z0T9); assay: FACS, transfected HEK-293 (parental: 0)
[10] = target: cynomolgus αVβ6 on cells (cynomolgus); assay: FACS, K562 cells expressing cynomolgus αVβ6 (parental K562: 15)
[11] = target: human αVβ6 integrin on cells (human) (UniProt P06756); assay: FMAT, 1 ug/mL, HEK 293 cells stably overexpressing αVβ6
[12] = target: mouse αVβ6 on cells (mouse) (UniProt P43406); assay: FACS, K562 cells expressing mouse αVβ6 (parental K562: 15)
[13] = target: human αV on parental A375M cells (αVβ3 and αVβ5 integrins) (human) (UniProt P06756); assay: FACS, 1 ug/ml, parental A375M cells, day 1
[14] = target: human αV on parental A375M cells (αVβ3 and αVβ5 integrins) (human) (UniProt P06756); assay: FACS, 1 ug/ml, parental A375M cells, day 2
[15] = target: human αVβ6 integrin on cells (human) (UniProt P06756); assay: cell-based or functional assay
[16] = target: cynomolgus αVβ6 on cells (cynomolgus); assay: FACS, 1 ug/ml, HEK-293 transfected with cynomolgus αV and β6, day 1
[17] = target: cynomolgus αVβ6 on cells (cynomolgus); assay: FACS, 1 ug/ml, HEK-293 transfected with cynomolgus αV and β6, day 2
soluble αVβ6 (human) = soluble αVβ6 (human) (UniProt P06756); assay: ELISA, 1 ug/mL on plate-coated soluble αVβ6

Chain of human αV on parental A375M cells (αVβ3 and αVβ5 integrins) (human) (P06756 31-1048 A375M, form in doubt): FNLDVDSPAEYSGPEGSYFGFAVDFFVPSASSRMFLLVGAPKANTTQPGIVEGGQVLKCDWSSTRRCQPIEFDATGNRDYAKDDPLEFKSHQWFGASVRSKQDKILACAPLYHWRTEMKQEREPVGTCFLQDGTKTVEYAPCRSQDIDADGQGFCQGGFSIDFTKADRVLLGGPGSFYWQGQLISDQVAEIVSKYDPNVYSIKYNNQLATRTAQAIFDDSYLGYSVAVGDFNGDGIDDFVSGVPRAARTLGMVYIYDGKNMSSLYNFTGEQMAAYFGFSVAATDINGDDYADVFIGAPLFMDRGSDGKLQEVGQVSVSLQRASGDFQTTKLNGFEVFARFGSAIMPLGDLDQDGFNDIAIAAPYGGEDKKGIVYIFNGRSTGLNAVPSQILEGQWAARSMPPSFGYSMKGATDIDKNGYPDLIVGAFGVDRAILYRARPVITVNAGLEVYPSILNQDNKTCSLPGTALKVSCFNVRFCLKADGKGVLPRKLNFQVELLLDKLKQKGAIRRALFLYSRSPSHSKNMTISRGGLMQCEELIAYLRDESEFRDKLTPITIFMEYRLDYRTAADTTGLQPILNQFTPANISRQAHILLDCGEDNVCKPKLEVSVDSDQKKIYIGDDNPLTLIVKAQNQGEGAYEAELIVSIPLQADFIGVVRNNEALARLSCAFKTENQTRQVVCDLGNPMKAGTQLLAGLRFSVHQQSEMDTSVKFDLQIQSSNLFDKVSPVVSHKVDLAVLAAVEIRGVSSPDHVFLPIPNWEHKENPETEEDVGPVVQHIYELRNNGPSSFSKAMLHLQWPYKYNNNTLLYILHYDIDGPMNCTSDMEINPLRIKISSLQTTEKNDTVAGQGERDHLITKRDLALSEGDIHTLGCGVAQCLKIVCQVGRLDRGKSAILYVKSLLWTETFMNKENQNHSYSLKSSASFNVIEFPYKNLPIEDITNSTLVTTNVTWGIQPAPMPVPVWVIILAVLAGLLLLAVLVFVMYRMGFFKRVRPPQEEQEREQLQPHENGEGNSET
Chain of human αVβ6 integrin on cells (human) (P06756 31-1048, chain 1 of 2): as the sequence (P06756 31-1048 A375M, form in doubt) above, with M345A counted along it
Chain of human αVβ6 integrin on cells (human) (P18564 22-788, chain 2 of 2, further chain): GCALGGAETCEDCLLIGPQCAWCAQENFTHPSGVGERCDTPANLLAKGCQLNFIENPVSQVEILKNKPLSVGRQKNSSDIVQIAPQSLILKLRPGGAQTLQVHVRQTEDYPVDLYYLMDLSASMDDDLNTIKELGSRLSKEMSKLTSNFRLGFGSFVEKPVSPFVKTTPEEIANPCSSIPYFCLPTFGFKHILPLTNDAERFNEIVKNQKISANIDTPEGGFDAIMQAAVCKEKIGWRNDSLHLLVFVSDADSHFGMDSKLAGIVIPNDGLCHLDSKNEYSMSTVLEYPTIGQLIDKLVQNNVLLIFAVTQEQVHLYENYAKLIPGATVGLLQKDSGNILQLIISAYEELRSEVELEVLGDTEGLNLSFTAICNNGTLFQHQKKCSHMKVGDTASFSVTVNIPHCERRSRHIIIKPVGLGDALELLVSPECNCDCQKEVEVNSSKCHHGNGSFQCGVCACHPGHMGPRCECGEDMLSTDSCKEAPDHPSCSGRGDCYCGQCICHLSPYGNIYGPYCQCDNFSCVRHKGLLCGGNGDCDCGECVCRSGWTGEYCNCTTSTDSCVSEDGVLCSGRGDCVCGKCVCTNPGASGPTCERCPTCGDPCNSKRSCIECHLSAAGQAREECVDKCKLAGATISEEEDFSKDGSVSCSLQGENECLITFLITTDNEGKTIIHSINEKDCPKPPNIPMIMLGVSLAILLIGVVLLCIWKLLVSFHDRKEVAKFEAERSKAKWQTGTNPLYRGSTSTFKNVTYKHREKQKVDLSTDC
Chain of mouse αVβ6 on cells (mouse) (P43406 31-1044, chain 1 of 2): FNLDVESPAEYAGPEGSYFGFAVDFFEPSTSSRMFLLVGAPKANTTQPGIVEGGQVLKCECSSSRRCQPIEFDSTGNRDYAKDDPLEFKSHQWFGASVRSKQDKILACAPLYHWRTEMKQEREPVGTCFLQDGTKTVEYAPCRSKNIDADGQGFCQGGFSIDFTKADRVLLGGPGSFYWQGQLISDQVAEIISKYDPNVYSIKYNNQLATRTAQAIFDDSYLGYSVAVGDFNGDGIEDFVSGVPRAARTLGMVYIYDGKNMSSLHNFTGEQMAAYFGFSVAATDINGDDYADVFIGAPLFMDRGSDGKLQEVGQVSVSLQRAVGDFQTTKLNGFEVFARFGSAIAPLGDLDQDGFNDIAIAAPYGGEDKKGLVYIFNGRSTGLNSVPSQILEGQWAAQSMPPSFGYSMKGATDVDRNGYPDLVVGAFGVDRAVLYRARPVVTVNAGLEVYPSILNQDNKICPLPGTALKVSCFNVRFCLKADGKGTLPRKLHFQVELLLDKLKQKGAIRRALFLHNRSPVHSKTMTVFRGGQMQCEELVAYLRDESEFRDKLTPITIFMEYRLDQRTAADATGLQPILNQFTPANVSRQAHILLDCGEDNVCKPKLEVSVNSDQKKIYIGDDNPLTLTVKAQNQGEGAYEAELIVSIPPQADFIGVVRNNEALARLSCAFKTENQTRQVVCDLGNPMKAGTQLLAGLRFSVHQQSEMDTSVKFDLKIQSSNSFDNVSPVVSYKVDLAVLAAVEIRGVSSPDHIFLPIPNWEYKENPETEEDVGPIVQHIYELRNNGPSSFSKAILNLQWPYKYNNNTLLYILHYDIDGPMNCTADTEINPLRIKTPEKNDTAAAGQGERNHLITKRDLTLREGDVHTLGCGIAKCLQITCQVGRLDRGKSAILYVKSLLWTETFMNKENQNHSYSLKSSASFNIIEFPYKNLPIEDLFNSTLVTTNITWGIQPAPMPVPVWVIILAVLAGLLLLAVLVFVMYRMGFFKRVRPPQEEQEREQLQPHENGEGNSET
Chain of mouse αVβ6 on cells (mouse) (Q9Z0T9 22-787, chain 2 of 2, further chain): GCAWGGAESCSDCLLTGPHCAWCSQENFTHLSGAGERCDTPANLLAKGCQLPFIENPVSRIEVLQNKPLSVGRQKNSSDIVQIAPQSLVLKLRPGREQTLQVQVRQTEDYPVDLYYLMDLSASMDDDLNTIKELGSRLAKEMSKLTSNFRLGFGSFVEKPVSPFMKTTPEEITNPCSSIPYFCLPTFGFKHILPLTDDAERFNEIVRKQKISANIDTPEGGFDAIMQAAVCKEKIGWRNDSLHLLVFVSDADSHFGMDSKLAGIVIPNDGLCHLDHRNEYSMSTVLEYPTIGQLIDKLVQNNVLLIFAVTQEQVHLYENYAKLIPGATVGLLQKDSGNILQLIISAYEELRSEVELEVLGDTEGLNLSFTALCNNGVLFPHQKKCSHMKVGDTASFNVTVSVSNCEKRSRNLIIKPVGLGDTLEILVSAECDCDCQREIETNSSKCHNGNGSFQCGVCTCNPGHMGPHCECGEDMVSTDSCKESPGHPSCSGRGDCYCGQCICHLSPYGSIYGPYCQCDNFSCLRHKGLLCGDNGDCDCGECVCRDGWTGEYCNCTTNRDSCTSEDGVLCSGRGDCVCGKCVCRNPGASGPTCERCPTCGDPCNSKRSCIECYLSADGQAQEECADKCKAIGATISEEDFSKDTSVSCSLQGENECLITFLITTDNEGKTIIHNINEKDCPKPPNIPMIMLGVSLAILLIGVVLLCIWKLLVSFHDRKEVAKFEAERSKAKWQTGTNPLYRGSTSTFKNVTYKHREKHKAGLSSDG
Chain of mouse αV on transfected HEK-293 cells (mouse) (P43406 31-1044): as the sequence (P43406 31-1044, chain 1 of 2) above
Chain of mouse β6 on transfected HEK-293 cells (mouse) (Q9Z0T9 22-787): as the sequence (Q9Z0T9 22-787, chain 2 of 2, further chain) above

Substance Human IgG1 (antibody) has a Percent Inhibition of J6.77 adhesion to CS-1 peptide, 5 ug/ml [1] of -6%.

Human IgG2 (antibody) showed a Percent Inhibition of J6.77 adhesion to CS-1 peptide, 5 ug/ml [1] of -9%.

Human IgG Isotype Control (antibody) gave a % Inhibition of K562 adhesion to fibronectin [2] of -12%, a Percent Inhibition of K562 adhesion to FN9-10, 5 ug/ml [2] of 11% and a Percent Inhibition of A375M adhesion to osteopontin peptide, 5 ug/ml [3] of 3%.

In the case of Mouse IgG Control (antibody), the Percent Inhibition of A375M adhesion to osteopontin peptide, 5 ug/ml [3] is reported as 5%.

“murine anti-αVβ6 antibody 2077z (Cat#MAB2077z, Chemicon)” gave a percent of cells shifted [4] of 1%, a percent of cells shifted [5] of 45% and a percent of cells shifted [6] of 20%. It also gave a percent of cells shifted [7] of 5%, a percent of cells shifted [8] of 0% and a percent of cells shifted [9] of 11%. It also gave a Geometric Mean Shift (arbitrary units) [10] of 84, an FMAT Count [11] of 67 and an FMAT FL1 [11] of 659. The FMAT FL1XCount [11] was 44200, the Geometric Mean Shift (arbitrary units) [12] was 122 and the % Cells Shifted [13] was 30%. For the same substance, the GeoMean [13] was 2.03, the % Cells Shifted [14] was 5% and the GeoMean [14] was 15.4. The Estimated IC50, adhesion assay, n = 1 [15] was 0.226 mg/L, the Estimated IC50, adhesion assay, n = 2 [15] was 0.185 mg/L and the Estimated IC50, adhesion assay, n = 3 [15] was 0.286 mg/L. For the same substance, the % Cells Shifted [16] was 42%, the GeoMean [16] was 55.5 and the % Cells Shifted [17] was 11%. For the same substance, the GeoMean [17] was 28.1 and the ELISA OD (soluble αVβ6 (human)) was 6 OD.
